Test results as given in publication PMC5923107 (Antimicrobial Agents and Chemotherapy, 2018).

Columns and labels:
Settings in all cases: both partners purified
[1] = target: T1, hemagglutinin (HA) of influenza A virus A/California/07/2009 (H1N1, group 1) (Influenza A virus A/California/07/2009 …, UniProt C3W5X2, strain); assay: ELISA
T1 construct: also called A/California/07/2009 HA

[2] = target: T2, hemagglutinin (HA) of influenza A virus A/Sydney/05/1997 (H3N2, group 2) (Influenza A virus A/Sydney/5/1997 (H3N2), UniProt C3PR59, strain); assay: ELISA
T2 construct: also called A/Sydney/05/1997 HA

[3] = target: T3, biotinylated HA antigen of B/Florida/04/2006 (Influenza B virus B/Florida/4/2006, UniProt E1TVD5, strain); assay: BLI
T3 construct: also called HA of B/Florida/04/2006

B1: TRL854 (antibody, V domains shown)
VH: QVQLVESGAEVKKPGASVRVSCKGSGYTFTAYHMHWVRQAPGQGFEWVGWINPNSGATYYTSTFEGRVTMTRDTSITTAYMELSSLRSDDTAVYYCATDIVVERDASLGGFNSYGMDVWGQGTTVTVSS
VL: DIEMTQSPLSLPVTPGEPASISCRSSQSLLHSNGYNHLAWYLQKPGRSPHLLIYLASTRASGVPDRFSGSGSGTDFTLKISRVEAEDVGIYYCMQSLQTSITFGQGTRLEIK
notes: also called MAb TRL854
What does the source list for B1?
binding result [1]: no binding (tested: 5 μg/ml (30 nM)); binding result [2]: no binding (tested: 5 μg/ml (30 nM)); binding result [3]: binds

B2: TRL848 (antibody, V domains shown)
VH: QVQLLESGGDVVQPGTSLRLSCAASGFSLWTSGMHWVRQAPGKGLEWVAVMSYDETKKYYADSVRGRFSISRDNSRNTLYLQMNSLRVEDTAVYFCAKPRLDYLDYFHAADSWGQGTLVSVSS
VL: DIVLTQPPSVSVAPGQTATITCGGNYIGSKSVNWYQQRPGHAPVLVVYDDSDRPSGIPDRFSGSNSRSTATTATLTISRVEAGDEADYYCQVWETSEDLWVFGGGTKLTVL
notes: also called MAb TRL848
Does B2 bind [1]?
Result: no binding (tested: 5 μg/ml (30 nM))

Does B2 bind [2]?
Result: no binding (tested: 5 μg/ml (30 nM))

Does B2 bind [3]?
Result: binds

B3: TRL849 (antibody, V domains shown)
VH: QVQLVESGPGLVKPSQTLSLTCTVSGGSISNGGYHWSWIRQHPGKGLEWIGNIYYRGSTFYDPSLKSRVTISVDTSKSQFSLKLTSVTAADTAVYYCARMPLANYDLLTGLYIGAFDLWGQGTMVTVSS
VL: DIVLTQSPATLSVSPGERATLSCRASQSVNRNLAWFQQIPGQAPRLLIFDASTRAADIPARFSGGGSGAEFTLTVSSLQPEDFAVYYCQQYDKWPPGFGQGTKVEIK
notes: also called MAb TRL849
Which results are given for B3?
binding result [1]: no binding (tested: 5 μg/ml (30 nM)); binding result [2]: no binding (tested: 5 μg/ml (30 nM)); Kd [3]: ≤ 0.2 nM

B4: TRL845 (antibody, V domains shown)
VH: QVQLVQSGGDLVQPGGSLRLSCAASGFTFSRYSMNWVRQAPGMGLEWVAYISDTSRTIYYADSVKGRFTISRDNAKNSLYLQMKSLRDEDTAVYYCARDPDTPFVRAFDSWGQGTLVTVSS
VL: DIVLTQSPSFLSASVGDRVTITCRASQLISSYFAWYQQKPGKPPKLLIYAASTLQSGVPSRFSGSGSGTQFSLTISSLQPEDFATYYCQQLNSYPPITFGQGTRLEIK
notes: also called MAb TRL845
Does B4 bind [1]?
Result: no binding (tested: 5 μg/ml (30 nM))

Does B4 bind [2]?
Result: no binding (tested: 5 μg/ml (30 nM))

And the Kd [3]?
The Kd was no more than 0.2 nM.

B5: TRL847 (antibody, V domains shown)
VH: QVQLVESGGGLVQPGGSLRLSCVASGFTFSRFSMNWVRQAPGMGLEWVSYISDTGRTIYYADSVKGRFTISRDNDKNTLYLQMKSLRDEDSAFYYCARDPDTPFVRAFDSWGQGVLVTVSS
VL: DIVMTQSPSFLSASVGDRVTITCRTSQVISSYLAWYQQRPGKAPKLLIYAASTLQSGVPSRFSGSGSGTRFSLTISNLQPEDFATYFCQQLTTYPPITFGQGTRLEIK
notes: also called MAb TRL847
Does B5 bind [1]?
Result: no binding (tested: 5 μg/ml (30 nM))

Does B5 bind [2]?
Result: no binding (tested: 5 μg/ml (30 nM))

Does B5 bind [3]?
Result: binds
